Common to all, as to assay: SPR
A general note: SPR reads the build-up and loss of mass on a sensor chip optically.

For assay [1], the target named is S1 (Novus Biologicals NBP2-90985) (SARS-CoV-2, UniProt P0DTC2 14-685).
For assay [2], the target named is S1-NTD (ACROBiosystems S1D-C52H6) (SARS-CoV-2 (Wuhan-Hu-1 strain)).
In assay [3] the target is S1-RBD (ACROBiosystems SPD-C82E9) (SARS-CoV-2 (Wuhan-Hu-1 strain), UniProt P0DTC2 319-541).
The target in assay [4] is S2 (ACROBiosystems S2N-C52E8) (SARS-CoV-2 (Wuhan-Hu-1 strain), UniProt P0DTC2 14-1273).

No end group written: not given here.

One may read the Kd as a measure of binding affinity in units of concentration. The low end stands for a tighter complex, the high end for a looser complex.

B1: E5 Bicycle (canonical exemplar of epitope group 5) (peptide)
peptide: ACANPDNPVCRFYCA
modifications: not fully specified (bridges); also: bicyclic peptide, scaffold not named
Consider B1, for which the Kd in assay [1] turned out to be 0.024 µM.

B2: E6 Bicycle (exemplar of epitope group 6) (peptide)
peptide: ACDHYHCPWLALGGSCA
modifications: not fully specified (bridges); also: bicyclic peptide, scaffold not given here
Molecule B2 returned a dissociation constant Kd in assay [2] of 3.9 µM.

B3: E3 Bicycle (exemplar of epitope group 3) (peptide)
peptide: ACEDNDWVYCSTCA
modifications: not fully specified (bridges); also: Bicycle
As for B3, the Kd in assay [1] is 2.5 µM; in assay [3], 2.3 µM.

B4: E7 Bicycle (exemplar of epitope group 7) (peptide)
peptide: ACINPYCEHHIYLEHCA
modifications: not fully specified (bridges); also: bicyclic peptide, scaffold not given here
B4: in assay [2], the dissociation constant (Kd) amounted to 4 µM.

B5: E9 Bicycle (exemplar of epitope group 9) (peptide)
peptide: ACMNPFFYDCETVCA
modifications: not fully specified (bridges); also: bicyclic peptide, scaffold not named
Regarding B5, the Kd in assay [1] was found to be 3.8 µM; in assay [3], 4.1 µM.

B6: E2 Bicycle (canonical exemplar of epitope group 2) (peptide)
peptide: ACPYVAGRGTCLLCA
modifications: not fully specified (bridges); also: Bicycle
Regarding B6, the dissociation constant Kd turned out to be 0.83 µM in assay [1] and 0.65 µM in assay [3].

B7: E1 Bicycle (exemplar of epitope group 1) (peptide)
peptide: ACEYVGPMCYRLYCA
modifications: not fully specified (bridges); also: Bicycle
With B7, the dissociation constant (Kd) in assay [1] was 5.1 µM; in assay [3] it was 3.6 µM.

B8: E12 Bicycle (exemplar of epitope group 12) (peptide)
peptide: ACSSKFCDAWWNFNRCA
modifications: not fully specified (bridges); also: Bicycle
As for B8, the equilibrium dissociation constant (Kd) in assay [4] was found to be 0.81 µM.

B9: E11 Bicycle (exemplar of epitope group 11) (peptide)
peptide: ACFPEPWLGLCTPCA
modifications: not fully specified (bridges); also: Bicycle
Regarding B9, binding in assay [4] was characterised by a dissociation constant (Kd) of 0.53 µM. This Kd lies about 1.5-fold lower than the previous one.

B10: E4 Bicycle (exemplar of epitope group 4) (peptide)
peptide: ACIPLDWTCMIACA
modifications: not fully specified (bridges); also: bicyclic peptide, scaffold not named
Turning to B10, the results for the Kd in assay [1] and in assay [2] were 2.9 µM and 0.44 µM, respectively.
